Reference: patent publication US20250290928A1, “METHOD, KIT AND DEVICE FOR DETECTING EXTRACELLULAR VESICLES” (priority 2022, published 2025)
No end group written: not given here. *: point of attachment. 5FAM = O=C1OC2(c3ccc(O)cc3Oc3cc(O)ccc32)c2ccc(C(=O)*)cc21; TQ2 = quencher; TQ3 = quencher

Experiments:
Assay type in all cases: biochemical
[1] = biological target: T1, MMP14 in the MDA-MB-231-derived extracellular vesicles (Homo sapiens, UniProt P50281); assay: Digital detection of MDA-MB-231-derived extracellular vesicles through MMP14 activity in wells (microcompartments); conditions: for Expected value λ (×1): at EV concentration x1
T1 construct: in terms of intact MMP14 with a molecular weight of 70 kDa
Procedure: The concentration of the solution is 6.7 μg/mL.
100 μL of the MMP14 detection solution was added to 100 μL of the sample to provide a reaction solution for wells. […] 100 μL of 200 μL of the prepared reaction solution for wells was used in the measurement of MMP14 activity with a 96-well plate.
Next, the wells were filled with the reaction solution by leaving the well array 200 to stand under reduced pressure to degas the space 205. After that, the space 205 was fed with hydrophobic solvents to be sealed. Fluorinated oils AsahiKlin AE-3000 (manufactured by AGC Inc.) and Fomblin Y-25 (manufactured by Solvay S.A.) were used as the hydrophobic solvents. A fluorinated oil Simoa (trademark) SR-X Sealing Oil: 102767 (manufactured by Quanterix Corporation) was further used as another hydrophobic solvent.
Well diameter: 4.25 μm Well depth: 3.25 μm Well capacity: 50 fL Number of wells in array: 239,000 Array range: 3 mm×4 mm
(§1) The concentration of the solution is 20 μg/mL. […] The concentration of the solution was set to x1, and 10-fold serial dilution was performed to prepare standard samples with five concentrations.
Next, the wells were filled with the reaction solution by leaving the well array 200 to stand under reduced pressure to degas the space 205. After that, the space 205 was fed with hydrophobic solvents to be sealed.
The concentration of the solution is 20 μg/mL. […] The concentration of the solution was set to x1, and 3-fold serial dilution was performed to prepare standard samples with three concentrations.
The concentration of the solution is 20 μg/mL. […] The concentration of the solution was set to x1, and 2-fold serial dilution was performed to prepare standard samples with four concentrations.
The concentration of the solution is 5 μg/mL.
50 μL of the MMP14 detection solution was added to 50 μL of the sample to provide a reaction solution for wells.
50 μL of each of the MMP14 detection solutions was added to 50 μL of the sample to provide a reaction solution for wells.
The concentration of the solution is 6.7 µg/mL.

[2] = biological target: T1, MMP14 in the MDA-MB-231-derived extracellular vesicles; assay: Digital detection through MMP14 activity of MDA-MB-231-derived extracellular vesicles captured on Tim4-immobilized magnetic particles; conditions: Table 56, MB231 Present, 24 hours at 23° C.
[3] = biological target: T2, MMP14 in the A549-derived extracellular vesicles (Homo sapiens, UniProt P50281); assay: Digital detection of A549-derived extracellular vesicles through MMP14 activity in wells (Simoa Discs); conditions: for Expected value λ / Number of positives / Positive ratio: Example 21, 37° C.
T2 construct: host or cells: A549 (purified exosomes)
Procedure: as §1
The concentration of the solution is 10 μg/mL.

[4] = Example 42, EV 2.5 μg/mL, reporter 5 μM, 30° C., 4 hr, TRITC filter
[5] = Example 42, EV 2.5 μg/mL, reporter 5 μM, 30° C., 24 hr, TRITC filter
[6] = Example 20, 37° C., 5 h, BG, EV 0 (free of extracellular vesicles, pseudopositive)
[7] = Example 20, 37° C., 5 h, ΔBG Absent, EV 0.0001 a.u.
[8] = Example 20, 37° C., 5 h, ΔBG Absent, EV 0.001 a.u.
[9] = Example 20, 37° C., 5 h, ΔBG Absent, EV 0.01 a.u.
[10] = Example 20, 37° C., 5 h, ΔBG Absent, EV 0.1 a.u.
[11] = Example 20, 37° C., 5 h, ΔBG Absent, EV 1 a.u. (x1=10 μg/mL)
[12] = Example 20, 37° C., 5 h, ΔBG Present (positives at EV 0 subtracted), EV 1 a.u.
[13] = Example 20, 37° C., 5 h, ΔBG Present, EV 0.001 a.u.
[14] = Example 20, 37° C., 5 h, ΔBG Present, EV 0.01 a.u.
[15] = Example 20, 37° C., 5 h, ΔBG Present, EV 0.1 a.u.
[16] = Example 22, buffer (2), 37° C., 1 h, EV 0 (free of extracellular vesicles)
[17] = Example 22, buffer (2), 37° C., 1 h, EV 0.111 a.u.
[18] = Example 22, buffer (2), 37° C., 1 h, EV 0.333 a.u.
[19] = Example 22, buffer (2), 37° C., 1 h, EV 1 a.u. (x1=10 μg/mL)
[20] = Example 22, buffer (2), 37° C., 2 h, EV 0 (free of extracellular vesicles)
[21] = Example 22, buffer (2), 37° C., 2 h, EV 0.111 a.u.
[22] = Example 22, buffer (2), 37° C., 2 h, EV 0.333 a.u.
[23] = Example 22, buffer (2), 37° C., 2 h, EV 1 a.u. (x1=10 μg/mL)
[24] = 5 h, BG, EV 0 (free of extracellular vesicles, pseudopositive)
[25] = 5 h, ΔBG Absent, EV 0.0001 a.u.
[26] = 5 h, ΔBG Absent, EV 1 a.u. (x1=10 μg/mL)
[27] = 5 h, ΔBG Present (positives at EV 0 subtracted), EV 1 a.u.
[28] = 5 h, ΔBG Present, EV 0.0001 a.u.
[29] = 5 h, ΔBG Present, EV 0.001 a.u.

TAMRA-GGPLGLAGGK(TQ3) ({TAMRA}-GGPLGLAGGK(TQ3)) [Custom #2T]
Expected value λ [1, 4]: 0.1255 | Number of positives [1, 4]: 3,313 | Positive ratio [1, 4]: 0.118 | Expected value λ [1, 5]: 0.1339 | Number of positives [1, 5]: 3,518 | Positive ratio [1, 5]: 0.1253 | Expected value λ (×1) ([1]; single reporter, reaction 4 hr): 0.5022 | Extracellular vesicle concentration ([1]; single reporter, reaction 4 hr, at x1, from λ (×1) and 50 fL microcompartment): 1.0044e+10 mL⁻¹ | Expected value λ (×1) ([1]; single reporter, reaction 24 hr): 0.5354 | Extracellular vesicle concentration ([1]; single reporter, reaction 24 hr, at x1, from λ (×1) and 50 fL microcompartment): 1.0709e+10 mL⁻¹ | Particle Number of positives ([2]; Particle MS300C): 1,460 | Particle Number of positives ([2]; Particle Simoa): 359

[5-FAM]GRIGFLRTAK(TQ2)[OH] (5FAM-GRIGFLRTAK(TQ2)-OH) [Custom #1]
Expected value λ [1, 6]: 0.000553 | Number of positives [1, 6]: 32 | Positive ratio [1, 6]: 0.000553 | Expected value λ [1, 7]: 0.000535 | Number of positives [1, 7]: 31 | Positive ratio [1, 7]: 0.000534 | Expected value λ [1, 8]: 0.00285 | Number of positives [1, 8]: 165 | Positive ratio [1, 8]: 0.00285 | Expected value λ [1, 9]: 0.0115 | Number of positives [1, 9]: 661 | Positive ratio [1, 9]: 0.0114 | Expected value λ [1, 10]: 0.137 | Number of positives [1, 10]: 7,404 | Positive ratio [1, 10]: 0.128 | Expected value λ [1, 11]: 1.16 | Number of positives [1, 11]: 39,601 | Positive ratio [1, 11]: 0.686 | Expected value λ [1, 12]: 1.16 | Number of positives [1, 12]: 39,569 | Positive ratio [1, 12]: 0.685 | Number of positives ([1]; Example 20, 37° C., 5 h, ΔBG Present, EV 0.0001 a.u.): −1 | Expected value λ [1, 13]: 0.0023 | Number of positives [1, 13]: 133 | Positive ratio [1, 13]: 0.0023 | Expected value λ [1, 14]: 0.0109 | Number of positives [1, 14]: 629 | Positive ratio [1, 14]: 0.0109 | Expected value λ [1, 15]: 0.136 | Number of positives [1, 15]: 7,372 | Positive ratio [1, 15]: 0.128 | λ at x1 in an approximation with BG correction ([1]; Example 20, 5 h): 1.07 | λ at x1 in an approximation without BG correction ([1]; Example 20, 5 h): 1.03 | Extracellular vesicle concentration ([1]; Example 20, with BG correction): 2.1e+10 mL⁻¹ | extracellular vesicles in which MMP14 activity can be detected, contained in 1 μL of the extracellular vesicles (50 μg of protein in 50 μL of PBS) ([1]; Example 20, with BG correction): 2.1×10^9 | Extracellular vesicle concentration ([1]; Example 20, without BG correction): 2.1×10^9 /μg of protein | Extracellular vesicle concentration ([1]; Example 20, without BG correction, reaction solution 10 μg of protein/mL, 50 fL): 2.1e+10 mL⁻¹ | expected value λ at x1 (power approximation) ([1]; Example 22, after 1 hour): 0.661 | expected value λ at x1 (power approximation) ([1]; Example 22, after 2 hours): 0.7145 | Expected value λ [1, 16]: 0.000725 | Number of positives [1, 16]: 21 | Positive ratio [1, 16]: 0.000725 | Expected value λ [1, 17]: 0.0784 | Number of positives [1, 17]: 2,186 | Positive ratio [1, 17]: 0.0754 | Expected value λ [1, 18]: 0.237 | Number of positives [1, 18]: 6,117 | Positive ratio [1, 18]: 0.211 | Expected value λ [1, 19]: 0.65 | Number of positives [1, 19]: 13,855 | Positive ratio [1, 19]: 0.478 | Expected value λ [1, 20]: 0.000794 | Number of positives [1, 20]: 23 | Positive ratio [1, 20]: 0.000794 | Expected value λ [1, 21]: 0.0822 | Number of positives [1, 21]: 2,287 | Positive ratio [1, 21]: 0.0789 | Expected value λ [1, 22]: 0.238 | Number of positives [1, 22]: 6,143 | Positive ratio [1, 22]: 0.212 | Expected value λ [1, 23]: 0.719 | Number of positives [1, 23]: 14,860 | Positive ratio [1, 23]: 0.513 | extracellular vesicle concentration at which MMP14 activity was able to be detected in the microcompartments ([1]; Simoa Discs, buffer (4), reporter 5 μM, 37° C.): ≥ 10 ng/mL | Expected value λ [3, 24]: 0.000656 | Number of positives [3, 24]: 38 | Positive ratio [3, 24]: 0.000656 | Expected value λ [3, 25]: 0.000725 | Number of positives [3, 25]: 42 | Positive ratio [3, 25]: 0.000724 | Expected value λ ([3]; 5 h, ΔBG Absent, EV 0.001 a.u.): 0.000985 | Number of positives ([3]; 5 h, ΔBG Absent, EV 0.001 a.u.): 57 | Positive ratio ([3]; 5 h, ΔBG Absent, EV 0.001 a.u.): 0.000984 | Expected value λ ([3]; 5 h, ΔBG Absent, EV 0.01 a.u.): 0.00207 | Number of positives ([3]; 5 h, ΔBG Absent, EV 0.01 a.u.): 119 | Positive ratio ([3]; 5 h, ΔBG Absent, EV 0.01 a.u.): 0.00206 | Expected value λ ([3]; 5 h, ΔBG Absent, EV 0.1 a.u.): 0.0137 | Number of positives ([3]; 5 h, ΔBG Absent, EV 0.1 a.u.): 789 | Positive ratio ([3]; 5 h, ΔBG Absent, EV 0.1 a.u.): 0.0136 | Expected value λ [3, 26]: 0.149 | Number of positives [3, 26]: 8,036 | Positive ratio [3, 26]: 0.139 | Expected value λ [3, 27]: 0.148 | Number of positives [3, 27]: 7,998 | Positive ratio [3, 27]: 0.138 | Expected value λ [3, 28]: 0.000069 | Number of positives [3, 28]: 4 | Positive ratio [3, 28]: 0.000069 | Expected value λ [3, 29]: 0.000328 | Number of positives [3, 29]: 19 | Positive ratio [3, 29]: 0.000328 | Expected value λ ([3]; 5 h, ΔBG Present, EV 0.01 a.u.): 0.00141 | Number of positives ([3]; 5 h, ΔBG Present, EV 0.01 a.u.): 81 | Positive ratio ([3]; 5 h, ΔBG Present, EV 0.01 a.u.): 0.0014 | Expected value λ ([3]; 5 h, ΔBG Present, EV 0.1 a.u.): 0.013 | Number of positives ([3]; 5 h, ΔBG Present, EV 0.1 a.u.): 751 | Positive ratio ([3]; 5 h, ΔBG Present, EV 0.1 a.u.): 0.0129 | λ at x1 in an approximation with BG correction ([3]; Example 21, 5 h): 0.120 | λ at x1 in an approximation without BG correction ([3]; Example 21, 5 h): 0.102 | extracellular vesicle concentration at which MMP14 activity was able to be detected in the microcompartment ([3]; Example 21, Simoa Discs, buffer (4), reporter 5 μM, 37° C., 5 h): ≥ 100 ng/mL | Extracellular vesicle concentration ([3]; Example 21, with BG correction): 2.4e+09 mL⁻¹ | extracellular vesicles in which MMP14 activity can be detected, contained in 1 μL of the extracellular vesicles (50 μg of protein in 50 μL of PBS) ([3]; Example 21, with BG correction): 2.4×10^8 | Extracellular vesicle concentration ([3]; Example 21, without BG correction): 2.0×10^8 /μg of protein | Extracellular vesicle concentration ([3]; Example 21, without BG correction, reaction solution 10 μg of protein/mL, 50 fL): 2e+09 mL⁻¹
